Numbering of substitutions follows the chain as printed. Values joined by “and” are separate entries in the source; they are usually repeats but may differ in a detail not shown here. Identical values can stand only once.
B1: S8V1-157 recombinant human IgG1 (antibody, V domains shown)
VH: EVQLVQSGAEVKKPGASVKVSCKVSGYRLTALSMHWVRQAPGKGLEWMGGFDPEEDETIYAQNFQGRVTLTEDTSTDTVYMELSSLRSEDTGVYYCATLMGANPFDYWGQGTLIIVSG
VL: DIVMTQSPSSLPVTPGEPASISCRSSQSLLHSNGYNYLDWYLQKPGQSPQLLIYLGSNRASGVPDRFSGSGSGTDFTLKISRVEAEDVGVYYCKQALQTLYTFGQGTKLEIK
B2: S1V2-17 recombinant human IgG1 (antibody, V domains shown)
VH: QVKLVQSGAEVKKPGASVKVSCKVSGYTLSELSIHWVRQVPGKGLESMGGFDPEDDGAIYAESFQGRVTMTEDTSTDTSFMELHSLRSEDTAVYYCVTWLVGTTVAAYWGQGTLVTVS
VL: MTQTPFSLPVTPGEPASISCRSSQSLLYSNGYNHLDWYLQKPGQSPQLLIYLGSYRASGVPDRFSGSGSGTDFTLKISRVEADDVGVYYCMQALQAPRTFGQGTKVEIK
B3: S1V2-65 recombinant human IgG1 (antibody, V domains shown)
VH: EVQLVQSGAEVKKPGETLKISCKGSGYSFTNYWIGWVRQMPGKGLECMGIIDPSDSETRYSPSFQGQVTISADKSTNTAFLQWSTVKASDTAIYYCARLGYGDSPPFDFWGQGAGVTVS
VL: MTQSPLSLPVTPGESASISCRSSQSLLYSNGYNHLDWYVQKPGQPPQLLIFLGSTRASGVSDRVSGSGSGTDFTLQISRVEAEDVGVYYCMQALETPYTFGQGTKLEVK
B4: S1V2-60 recombinant human IgG1 (antibody, V domains shown)
VH: EVQLVQSGAEVSEPGKSLKISCKGSAYSFINYWIGWVRQMPGKGLECMGIIDPSDSETRYNPSFEGHVLISADTSINTAYLQWSSLRASDTAMYYCVRLGYGDSPPFDSWGQGTLVTVS
VL: B2 VL with T4S, L39Q, S45P, Y51F, Y55R, D83E, A96D, R98Y, V106L
B5: FI6v3 recombinant human IgG (antibody, V domains shown)
VH: QVQLVESGGGVVQPGRSLRLSCAASGFTFSTYAMHWVRQAPGKGLEWVAVISYDANYKYYADSVKGRFTISRDNSKNTLYLQMNSLRAEDTAVYYCAKDSQLRSLLYFEWLSQGYFDYWGQGTLVTVSS
VL: not shown

The binders below were run against specific HAs not engaged in ELISA (soluble HA ectodomains) (influenza virus) (assay: ELISA).

Which Kd does the source give for B1 here?
Its Kd is over 100000 pM.

B2 was tested. Which Kd did it give?
Its Kd is over 100000 pM.

With B3 as the binder, how does the Kd read?
The Kd was over 100000 pM.

With B4 as the binder, how does the Kd read?
The Kd was over 100000 pM.

What follows are binders tested against pandemic H2 HA (soluble HA ectodomain, ELISA) (influenza A virus) (assay: ELISA).

For B1, which Kd is on record?
The Kd was 2500 pM.

B5 was tested. Which Kd did it give?
The Kd was 360 pM.

B2 was tested. Which Kd did it give?
The Kd was 6500 pM.

With B3 as the binder, how does the Kd read?
Its Kd is 10000 pM.

How did the Kd turn out when B4 was run?
The Kd was 8800 pM.

The binders below were run against all seasonal H3s (1968–2020) assayed (soluble HA ectodomains, ELISA) (influenza A virus) (assay: ELISA).

With B3 as the binder, how does the Kd read?
The Kd was 160 pM and 210 pM and 250 pM.

What follows are binders tested against pre-pandemic H5 HAs (soluble HA ectodomains, ELISA) (influenza A virus) (assay: ELISA).

Which Kd does the source give for B1 here?
Its Kd is under 100 pM.

For B5, which Kd is on record?
The Kd was 440 pM.

B2 was tested. Which Kd did it give?
Its Kd is 140 pM.

For B3, which Kd is on record?
The Kd was 100 pM.

For B4, which Kd is on record?
Its Kd is 100 pM.

Reference: article PMC12153317 (2025)
